Measurements as given in the supplement of paper PMC10065799, “High-throughput profiling of sequence recognition by tyrosine kinases and SH2 domains using bacterial peptide display” (eLife, 2023).

Target: MERTK (UniProt Q12866)
Test: phosphorylation enrichment, bacterial display (enrichment ratio); higher = better substrate or ligand; peptides without Tyr show the background
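Throughout, for SH2 binding enrichment of the phosphorylated peptide, bacterial display: peptide library displayed on the E. coli surface as eCPX fusions, selected cells deep-sequenced, score is each peptide's frequency after selection divided by its frequency in the input.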
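Throughout, for phosphorylation enrichment, bacterial display: 11-residue human phosphosite peptides and single-mutation variants displayed on the E. coli surface, counted by deep sequencing, each peptide's frequency after selection divided by its frequency in the unselected input library; frequency after pTyr selection over input frequency; kinase dosed for 20-30% of maximal phosphorylation in three min.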

Sequence of MERTK (Q12866 whole entry, looked up): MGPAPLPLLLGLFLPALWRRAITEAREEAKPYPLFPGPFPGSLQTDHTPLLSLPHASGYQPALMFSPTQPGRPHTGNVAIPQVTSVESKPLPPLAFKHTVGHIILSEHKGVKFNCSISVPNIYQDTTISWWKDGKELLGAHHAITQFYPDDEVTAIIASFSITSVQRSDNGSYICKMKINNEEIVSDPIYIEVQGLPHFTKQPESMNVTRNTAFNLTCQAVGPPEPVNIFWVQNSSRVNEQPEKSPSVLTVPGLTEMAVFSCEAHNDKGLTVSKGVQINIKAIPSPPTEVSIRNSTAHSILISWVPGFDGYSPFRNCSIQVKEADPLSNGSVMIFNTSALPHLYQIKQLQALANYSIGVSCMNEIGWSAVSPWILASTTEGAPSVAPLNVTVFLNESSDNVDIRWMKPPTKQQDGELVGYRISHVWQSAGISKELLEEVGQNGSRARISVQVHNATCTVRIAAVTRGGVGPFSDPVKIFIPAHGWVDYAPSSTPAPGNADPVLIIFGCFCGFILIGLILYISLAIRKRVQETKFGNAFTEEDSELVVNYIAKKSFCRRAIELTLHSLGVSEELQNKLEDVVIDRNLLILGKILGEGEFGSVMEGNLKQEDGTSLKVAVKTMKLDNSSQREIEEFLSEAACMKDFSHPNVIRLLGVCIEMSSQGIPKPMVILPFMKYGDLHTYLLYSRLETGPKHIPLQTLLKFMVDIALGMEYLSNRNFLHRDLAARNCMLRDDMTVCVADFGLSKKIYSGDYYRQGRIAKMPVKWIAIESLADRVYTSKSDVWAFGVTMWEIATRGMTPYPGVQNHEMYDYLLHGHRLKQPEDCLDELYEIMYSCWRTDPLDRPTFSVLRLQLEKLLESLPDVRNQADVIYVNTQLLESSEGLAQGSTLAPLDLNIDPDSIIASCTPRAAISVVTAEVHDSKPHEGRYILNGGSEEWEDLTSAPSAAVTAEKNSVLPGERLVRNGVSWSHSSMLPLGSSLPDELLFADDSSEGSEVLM

Sequence	phosphorylation enrichment
VLTSKYHGGGG [HBA1_Y141_R142H]	0.494
SVVVPFEPPEV [TP53_Y220_Y220F]	0.39
QTSTDYDIRFF [CSNK2A1_Y131_L128S_YF]	0.688
VSYDEYRYRSV [CFTR_Y515]	0.428
TFLRTYTDAMQ [TSPAN7_Y124]	0.37
HSVLQYVGGVM [FGGY_Y136]	0.986
AESPEHVHMYT [FAM111A_Y511_Y511H]	0.377
YPKAHYHWLVL [APTX_Y214_R213H]	0.61
QKPLDYFRVNL [GALE_Y104_YF]	0.647
CLAKMYFSAVD [CP_Y539_YF]	0.414
FVSSFYHAFSG [ACTN4_Y265_YF]	8.71
ITNHIYTWVDP [DFNB31_Y234_V229I]	8.78
CEAVEYLESKQ [BTK_Y511_M509V]	0.384
LERFIYNREEL [HLA-DPB1_Y59_F64L_YF]	0.694
ELRGTYTSLQQ [KIF3C_Y574]	0.434
MFCASYDTKQE [F10_Y407_G406S]	0.552

Target: FGFR3 (UniProt P22607)
Sequence (P22607 whole entry, looked up): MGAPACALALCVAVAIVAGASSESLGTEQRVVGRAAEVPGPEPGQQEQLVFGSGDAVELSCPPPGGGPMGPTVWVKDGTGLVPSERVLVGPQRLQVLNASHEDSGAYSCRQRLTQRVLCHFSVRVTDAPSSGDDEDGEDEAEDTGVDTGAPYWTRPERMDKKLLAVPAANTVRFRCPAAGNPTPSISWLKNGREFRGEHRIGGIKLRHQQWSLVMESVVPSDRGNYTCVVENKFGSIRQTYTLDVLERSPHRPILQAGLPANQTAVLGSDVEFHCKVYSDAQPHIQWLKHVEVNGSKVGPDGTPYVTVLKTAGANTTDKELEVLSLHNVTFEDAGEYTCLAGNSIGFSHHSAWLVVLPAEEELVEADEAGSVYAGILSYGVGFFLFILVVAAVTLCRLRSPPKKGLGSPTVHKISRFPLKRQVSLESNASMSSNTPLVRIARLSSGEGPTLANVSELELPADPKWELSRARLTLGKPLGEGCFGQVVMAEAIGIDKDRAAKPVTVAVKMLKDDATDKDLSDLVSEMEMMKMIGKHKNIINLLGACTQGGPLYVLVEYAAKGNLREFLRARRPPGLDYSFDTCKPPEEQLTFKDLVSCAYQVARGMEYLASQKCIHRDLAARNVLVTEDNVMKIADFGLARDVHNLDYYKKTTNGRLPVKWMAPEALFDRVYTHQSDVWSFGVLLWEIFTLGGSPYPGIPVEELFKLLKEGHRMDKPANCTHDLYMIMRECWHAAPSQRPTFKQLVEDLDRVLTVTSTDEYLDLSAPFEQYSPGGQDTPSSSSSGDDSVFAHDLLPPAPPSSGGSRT
Test: as above

Sequence	phosphorylation enrichment
VLTSKYHGGGG [HBA1_Y141_R142H]	0.304
SVVVPFEPPEV [TP53_Y220_Y220F]	0.668
QTSTDYDIRFF [CSNK2A1_Y131_L128S_YF]	1.41
VSYDEYRYRSV [CFTR_Y515]	0.484
TFLRTYTDAMQ [TSPAN7_Y124]	0.548
HSVLQYVGGVM [FGGY_Y136]	1.18
AESPEHVHMYT [FAM111A_Y511_Y511H]	0.609
YPKAHYHWLVL [APTX_Y214_R213H]	1.94
QKPLDYFRVNL [GALE_Y104_YF]	4.41
CLAKMYFSAVD [CP_Y539_YF]	0.765
FVSSFYHAFSG [ACTN4_Y265_YF]	1.34
ITNHIYTWVDP [DFNB31_Y234_V229I]	2.95
CEAVEYLESKQ [BTK_Y511_M509V]	0.875
LERFIYNREEL [HLA-DPB1_Y59_F64L_YF]	0.75
ELRGTYTSLQQ [KIF3C_Y574]	0.535
MFCASYDTKQE [F10_Y407_G406S]	0.746

Tested on: c-Abl (mouse)
Test: as above

Sequence	phosphorylation enrichment
VLTSKYHGGGG [HBA1_Y141_R142H]	0.617
SVVVPFEPPEV [TP53_Y220_Y220F]	0.866
QTSTDYDIRFF [CSNK2A1_Y131_L128S_YF]	1.18
VSYDEYRYRSV [CFTR_Y515]	0.667
TFLRTYTDAMQ [TSPAN7_Y124]	0.552
HSVLQYVGGVM [FGGY_Y136]	0.846
AESPEHVHMYT [FAM111A_Y511_Y511H]	0.476
YPKAHYHWLVL [APTX_Y214_R213H]	0.846
QKPLDYFRVNL [GALE_Y104_YF]	0.905
CLAKMYFSAVD [CP_Y539_YF]	1.03
FVSSFYHAFSG [ACTN4_Y265_YF]	2.01
ITNHIYTWVDP [DFNB31_Y234_V229I]	0.832
CEAVEYLESKQ [BTK_Y511_M509V]	0.738
LERFIYNREEL [HLA-DPB1_Y59_F64L_YF]	1.11
ELRGTYTSLQQ [KIF3C_Y574]	0.684
MFCASYDTKQE [F10_Y407_G406S]	0.731

Target: Hck (UniProt P08631)
Sequence (P08631 whole entry, looked up): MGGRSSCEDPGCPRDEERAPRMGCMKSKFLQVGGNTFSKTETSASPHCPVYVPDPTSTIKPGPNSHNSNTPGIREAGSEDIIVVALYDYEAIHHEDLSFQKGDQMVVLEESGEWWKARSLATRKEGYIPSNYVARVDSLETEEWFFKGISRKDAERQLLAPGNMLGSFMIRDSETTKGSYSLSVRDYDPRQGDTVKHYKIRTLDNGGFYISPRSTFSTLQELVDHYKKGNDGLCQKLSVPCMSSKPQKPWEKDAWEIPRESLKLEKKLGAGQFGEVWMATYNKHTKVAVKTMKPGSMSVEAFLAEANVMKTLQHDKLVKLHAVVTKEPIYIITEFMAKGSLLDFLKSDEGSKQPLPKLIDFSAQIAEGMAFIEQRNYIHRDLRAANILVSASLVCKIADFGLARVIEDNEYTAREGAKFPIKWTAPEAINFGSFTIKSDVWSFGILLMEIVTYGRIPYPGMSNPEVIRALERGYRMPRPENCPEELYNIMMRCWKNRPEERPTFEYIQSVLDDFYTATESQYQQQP
Test: as above

Sequence	phosphorylation enrichment
VLTSKYHGGGG [HBA1_Y141_R142H]	0.391
SVVVPFEPPEV [TP53_Y220_Y220F]	0.502
QTSTDYDIRFF [CSNK2A1_Y131_L128S_YF]	0.968
VSYDEYRYRSV [CFTR_Y515]	0.586
TFLRTYTDAMQ [TSPAN7_Y124]	0.506
HSVLQYVGGVM [FGGY_Y136]	0.833
AESPEHVHMYT [FAM111A_Y511_Y511H]	0.547
YPKAHYHWLVL [APTX_Y214_R213H]	0.501
QKPLDYFRVNL [GALE_Y104_YF]	0.647
CLAKMYFSAVD [CP_Y539_YF]	0.527
FVSSFYHAFSG [ACTN4_Y265_YF]	2.6
ITNHIYTWVDP [DFNB31_Y234_V229I]	2.66
CEAVEYLESKQ [BTK_Y511_M509V]	0.613
LERFIYNREEL [HLA-DPB1_Y59_F64L_YF]	1.5
ELRGTYTSLQQ [KIF3C_Y574]	0.956
MFCASYDTKQE [F10_Y407_G406S]	0.554

Tested on: c-Src
Test: as above

Sequence	phosphorylation enrichment
VLTSKYHGGGG [HBA1_Y141_R142H]	0.407
SVVVPFEPPEV [TP53_Y220_Y220F]	0.552
QTSTDYDIRFF [CSNK2A1_Y131_L128S_YF]	0.892
VSYDEYRYRSV [CFTR_Y515]	0.743
TFLRTYTDAMQ [TSPAN7_Y124]	0.413
HSVLQYVGGVM [FGGY_Y136]	0.738
AESPEHVHMYT [FAM111A_Y511_Y511H]	0.369
YPKAHYHWLVL [APTX_Y214_R213H]	0.487
QKPLDYFRVNL [GALE_Y104_YF]	0.711
CLAKMYFSAVD [CP_Y539_YF]	0.563
FVSSFYHAFSG [ACTN4_Y265_YF]	4.01
ITNHIYTWVDP [DFNB31_Y234_V229I]	4.2
CEAVEYLESKQ [BTK_Y511_M509V]	0.52
LERFIYNREEL [HLA-DPB1_Y59_F64L_YF]	2.42
ELRGTYTSLQQ [KIF3C_Y574]	1.39
MFCASYDTKQE [F10_Y407_G406S]	0.511

Target: Grb2 SH2 (UniProt P62993)
Sequence (P62993 whole entry, looked up): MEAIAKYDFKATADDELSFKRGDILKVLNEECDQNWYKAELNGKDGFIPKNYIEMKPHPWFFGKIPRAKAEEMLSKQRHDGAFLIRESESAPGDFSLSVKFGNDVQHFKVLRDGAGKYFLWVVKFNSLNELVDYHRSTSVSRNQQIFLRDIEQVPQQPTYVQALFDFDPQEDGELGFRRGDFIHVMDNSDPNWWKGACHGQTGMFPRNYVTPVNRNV
Test: SH2 binding enrichment of the phosphorylated peptide, bacterial display (enrichment ratio); higher = better substrate or ligand; peptides without Tyr show the background

Sequence	SH2 binding enrichment
VLTSKYHGGGG [HBA1_Y141_R142H]	0.835
SVVVPFEPPEV [TP53_Y220_Y220F]	0.807
QTSTDYDIRFF [CSNK2A1_Y131_L128S_YF]	1.15
VSYDEYRYRSV [CFTR_Y515]	0.978
TFLRTYTDAMQ [TSPAN7_Y124]	0.761
HSVLQYVGGVM [FGGY_Y136]	0.961
AESPEHVHMYT [FAM111A_Y511_Y511H]	0.822
YPKAHYHWLVL [APTX_Y214_R213H]	1.6
QKPLDYFRVNL [GALE_Y104_YF]	1.05
CLAKMYFSAVD [CP_Y539_YF]	0.895
FVSSFYHAFSG [ACTN4_Y265_YF]	1.33
ITNHIYTWVDP [DFNB31_Y234_V229I]	1.05
CEAVEYLESKQ [BTK_Y511_M509V]	0.929
LERFIYNREEL [HLA-DPB1_Y59_F64L_YF]	1.2
ELRGTYTSLQQ [KIF3C_Y574]	0.775
MFCASYDTKQE [F10_Y407_G406S]	0.774

Target: c-Src SH2
Test: as above

Sequence	SH2 binding enrichment
VLTSKYHGGGG [HBA1_Y141_R142H]	0.522
SVVVPFEPPEV [TP53_Y220_Y220F]	0.469
QTSTDYDIRFF [CSNK2A1_Y131_L128S_YF]	0.477
VSYDEYRYRSV [CFTR_Y515]	1.45
TFLRTYTDAMQ [TSPAN7_Y124]	0.846
HSVLQYVGGVM [FGGY_Y136]	0.493
AESPEHVHMYT [FAM111A_Y511_Y511H]	0.489
YPKAHYHWLVL [APTX_Y214_R213H]	1.2
QKPLDYFRVNL [GALE_Y104_YF]	0.747
CLAKMYFSAVD [CP_Y539_YF]	0.606
FVSSFYHAFSG [ACTN4_Y265_YF]	0.95
ITNHIYTWVDP [DFNB31_Y234_V229I]	0.99
CEAVEYLESKQ [BTK_Y511_M509V]	0.539
LERFIYNREEL [HLA-DPB1_Y59_F64L_YF]	0.703
ELRGTYTSLQQ [KIF3C_Y574]	3.05
MFCASYDTKQE [F10_Y407_G406S]	0.733

Target: SHP2-C SH2
Test: as above

Sequence	SH2 binding enrichment
VLTSKYHGGGG [HBA1_Y141_R142H]	0.715
SVVVPFEPPEV [TP53_Y220_Y220F]	0.537
QTSTDYDIRFF [CSNK2A1_Y131_L128S_YF]	0.864
VSYDEYRYRSV [CFTR_Y515]	0.822
TFLRTYTDAMQ [TSPAN7_Y124]	0.864
HSVLQYVGGVM [FGGY_Y136]	0.511
AESPEHVHMYT [FAM111A_Y511_Y511H]	0.674
YPKAHYHWLVL [APTX_Y214_R213H]	1.43
QKPLDYFRVNL [GALE_Y104_YF]	0.68
CLAKMYFSAVD [CP_Y539_YF]	0.608
FVSSFYHAFSG [ACTN4_Y265_YF]	1.07
ITNHIYTWVDP [DFNB31_Y234_V229I]	0.791
CEAVEYLESKQ [BTK_Y511_M509V]	0.643
LERFIYNREEL [HLA-DPB1_Y59_F64L_YF]	0.85
ELRGTYTSLQQ [KIF3C_Y574]	4.42
MFCASYDTKQE [F10_Y407_G406S]	0.749
